# Experimental data: patent publication US20220249561A1
# B1: CAR 021 (FAM150BTr-28z dCH2CH3) (protein)
# chain: AEAAGLGPSPEQRVEIVPRDLRMKDKFLKHLTGPLYFSPKCSKHFHRLYHNTRDCTIPAYYKRCARLLTRLAVSPVCMEDKQEPKSCDKTHTCPPCDPAEPKSPDKTHTCPFWVLVVVGGVLACYSLLVTVAFIIFWVRSKRSRLLHSDYMNMTPRRPGPTRKHYQPYAPPRDFAAYRSRVKFSRSADAPAYQQGQNQLYNELNLGRREEYDVLDKRRGRDPEMGGKPRRKNPQEGLYNELQKDKMAEAYSEIGMKGERRRGKGHDGLYQGLSTATKDTYDALHMQALPPR
# Biological target: ALK 001P
# Assay: flow cytometry; CAR-T cells incubated with ALK 001P, detected with PE anti-His tag antibody and APC anti-CD3
# Chain of ALK 001P (chain, as listed by the source limits assumed): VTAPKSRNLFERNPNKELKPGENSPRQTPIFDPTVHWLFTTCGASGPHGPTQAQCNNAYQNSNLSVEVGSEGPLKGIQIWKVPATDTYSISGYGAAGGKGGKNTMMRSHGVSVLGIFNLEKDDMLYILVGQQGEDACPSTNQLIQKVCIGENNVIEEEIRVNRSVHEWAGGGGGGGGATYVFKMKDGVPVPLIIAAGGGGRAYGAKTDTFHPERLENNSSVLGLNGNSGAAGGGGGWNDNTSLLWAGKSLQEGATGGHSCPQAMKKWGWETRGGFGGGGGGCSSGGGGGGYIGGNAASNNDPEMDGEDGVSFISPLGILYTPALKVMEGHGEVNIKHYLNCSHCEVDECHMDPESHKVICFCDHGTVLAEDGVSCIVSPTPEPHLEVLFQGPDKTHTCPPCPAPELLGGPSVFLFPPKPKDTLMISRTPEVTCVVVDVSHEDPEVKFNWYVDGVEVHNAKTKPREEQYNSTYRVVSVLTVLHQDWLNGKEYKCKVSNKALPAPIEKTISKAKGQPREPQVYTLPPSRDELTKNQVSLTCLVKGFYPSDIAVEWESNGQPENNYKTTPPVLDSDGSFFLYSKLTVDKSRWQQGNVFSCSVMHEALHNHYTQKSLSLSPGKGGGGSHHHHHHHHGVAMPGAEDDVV
binder,measurement,value
B1,Expression rate (% of cells positive for ALK 001P staining),24.1%
